Tests used:
PET28-NgAP2a [1] = target: T1, PET28-NgAP2a (Nannochloropsis gaditana, UniProt W7TGT1 140-326); experiment: EMSA; Beyotime Chemiluminescent EMSA Kit GS009 per manual; buffer, salt, pH and temperature not stated; conditions: protein: recombinant; label: 3' biotin; blunt
T1 sequence: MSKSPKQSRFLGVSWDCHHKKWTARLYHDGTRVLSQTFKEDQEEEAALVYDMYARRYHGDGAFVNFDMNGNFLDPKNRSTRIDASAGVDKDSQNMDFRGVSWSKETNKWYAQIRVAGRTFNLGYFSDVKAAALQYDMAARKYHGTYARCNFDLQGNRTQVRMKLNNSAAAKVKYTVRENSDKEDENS

PET28-NgAP2a [2] = target: T1, PET28-NgAP2a; experiment: competition; 100x unlabeled vs biotin M5 probe; Beyotime Chemiluminescent EMSA Kit GS009 per manual; buffer, salt, pH and temperature not stated; conditions: protein: recombinant; label: none (unlabeled); blunt

B1: M5 probe (EMSA5) (dsDNA)
DNA 1: CTCATTCCCATACCGCAAGTACCTGACCCTGTA
DNA 2: TACAGGGTCAGGTACTTGCGGTATGGGAATGAG
binding result (PET28-NgAP2a [1]): binds

B2: unlabeled M5 competitor (dsDNA)
DNA 1: CTCATTCCCATACCGCAAGTACCTGACCCTGTA
DNA 2: TACAGGGTCAGGTACTTGCGGTATGGGAATGAG
binding result (PET28-NgAP2a [2]): binds

B3: mutant M5 competitor (mu_EMSA5) (dsDNA)
DNA 1: CTCATTCCCATAAAACAAGTACCTGACCCTGTA
DNA 2: TACAGGGTCAGGTACTTGTTTTATGGGAATGAG
binding result (PET28-NgAP2a [2]): no binding

B4: M3 probe (EMSA3) (dsDNA)
DNA 1: GGCGTTGCCACTTGGGCAAAGAAAAGCTGG
DNA 2: CCAGCTTTTCTTTGCCCAAGTGGCAACGCC
binding result (PET28-NgAP2a [1]): no binding
